# Source: patent US7888090B2, “Mutants of O6-alkylguanine-DNA alkyltransferase” (Ecole Polytechnique Federale de Lausanne, priority 2004, dated 2011)
# B1: Wild type hAGT: wild type human O^6-alkylguanine-DNA alkyltransferase (SEQ ID NO:1); GST-hAGT is its GST fusion (protein, listed as Homo sapiens)
# chain: MDKDCEMKRTTLDSPLGKLELSGCEQGLHEIKLLGKGTSAADAVEVPAPAAVLGGPEPLMQCTAWLNAYFHQPEAIEEFPVPALHHPVFQQESFTRQVLWKLLKVVKFGEVISYQQLAALAGNPKAARAVGGAMRGNPVPILIPCHRVVCSSGAVGNYSGGLAVKEWLLAHEGHRLGKPGLGGSSGLAGAWLKGAGATSGSPPAGRN
# Tests used:
# [1] = BG-Cy3 activity assay (reaction rate of AGT mutants); type: biochemical
# Experimental: Reactivity against DNA-based substrates measured with a BG-Cy3 assay: BG-Cy3 is prepared by reacting the previously described O^6-(4-aminomethyl-benzyl)guanine (Keppler et al., NatureBiotechnol. 21:86-89, 2003) with the commercially available N-hydroxysuccinimide ester of Cy3, (Cy3-NHS, Amersham). The coupling reaction is performed at ambient temperature in N,N-dimethylformamide in the presence of 1 eq. of triethylamine. The BG-Cy3 conjugate is purified by reversed-phase HPLC on a C18-column by using linear gradients from 0.1% trifluoroacetic acid to acetonitrile. After solvent evaporation BG-Cy3 is dissolved in dimethyl sulfoxide and stored at −20° C. For measuring the reactivity with DNA-based substrates, a reaction mixture containing different concentrations (0 to 5 µM) of oligonucleotide SEQ ID NO:2 (modified in position 14), GST-AGT fusion protein at 0.2 µM and BG-Cy3 at […] in reaction buffer (50 mM HEPES, pH 7.2, 1 mM DTT, 200 mg/ml BSA) is incubated in microtiterplates. Fluorescence of the Cy3 derivative (excitation 519 nm, emission at 572 nm) is measured on a Spectramax Gemini plate reader (Molecular Devices).
# The amplified products are cloned in fusion to the g3 gene of filamentous phage in the vector pAK100 via SfiI restriction sites. The resulting gene libraries are used for phage display as described under Example 4. The mutants of the libraries are selected with 5 to 50 nM of BG-Bt for 10 min. Selected mutants are subcloned into pGEX using the primers SEQ ID NO:3 and SEQ ID NO:13. The reaction rate of mutant AGTs is determined as described in Example 6, Reactivity against DNA-based substrates (BG-Cy3 assay).
# For the activity assay purified GST fusion proteins were used for mutants marked with “p.” (prepared as described under Example 1); periplasmic extracts were used for mutants marked with “x.” (prepared as described under Example 2).
# [2] = Stability after reaction with BG-FL; type: physicochemical; conditions: over 7 days
# Experimental: Stability before reaction is determined for the mutant AGT or for a mutant AGT fusion protein by incubating purified samples in buffered aqueous solution for up to two weeks at 4° C. and up to six months at −20° C. At several time points, aliquots are taken and concentration of reactive AGT is estimated as described by Juillerat et al., Chem Biol 10:313-317, 2003. Stability for wild type AGT and the AGT mutant after reaction with a labelled substrate and after subsequent separation from unreacted substrate is determined by quantifying the concentration of the label in the soluble fraction over up to two weeks at 4° C. and up to three months at −20° C.
# Stability after reaction: The vector pBAD/H is A (Invitrogen) is modified by cloning synthetic oligonucleotides (SEQ ID NO:29 and SEQ ID NO:30) between the NcoI and HindIII sites to include a 12×His-tag and SbfI and AscI cloning sites. The gene of AGTM is amplified with primers SEQ ID NO:31 and SEQ ID NO:32 and cloned between the SbfI/AscI sites into this vector. Wild type AGT and mutant AGT (Lys125Ala, Ala127Thr, Arg128Ala, Asn157Gly, Ser159Glu) are amplified with primers SEQ ID NO:31 and SEQ ID NO:33 and cloned into this vector. Protein expression is carried out in E. coli strain Top 10. An exponentially growing culture is induced with 0.2% arabinose, and the expression is carried out for 16 hours at 28° C. The cells are lysed by adding buffer to 10 ml/g containing 0.5 M NaCl, 80 mM imidazole, 1% Triton, 250 µM PMSF, 1 mM […]-mercaptoethanol, 5 mg/ml lysozyme, 20 µg/ml DNase and stirring for 45 min. […]
# The AGT proteins at 10 µM) are quantitatively reacted with fluorescein-modified O^6-benzyl-guanine (substance 5 of Juillerat et al, Chem Biol 10:313-317, 2003, BG-FL, 20 µM) and purified over a size exclusion column (Econopac 10 DG, Bio-Rad) and incubated for 7 days. […] The fluorescence of the supernatant is measured with a Victor2 fluorescence plate reader (Perkin Elmer, excitation/emission at 485/535 nm).
# [3] = Reaction of two AGT variants in one sample with CPTG and BG-Bt; type: biochemical
# Experimental: FIG. 2: Western blot of the reaction of wild type hAGT (GST-hAGT fusion protein) and AGTM with the two substrates N^9-cyclopentyl-O^6-bromophenyl-guanine (CPTG) and biotinylated O^6-benzylguanine (BG-Bt, substance 3a of Juillerat et al. 2003) as described in Example 7. BG-Bt is present in all samples at 5 μM. Detection with neutravidin-peroxidase conjugate and luminescent peroxidase substrate detecting any AGT reacted with BG-Bt. Even under simultaneous incubation with identical concentrations of CPTG and BG-Bt only about 5% of GST-hAGT reacts with substrate BG-Bt.
# Within the experiment two tags with different size for the two AGT proteins are used: The His-tagged AGTM (˜20 kDa) and GST-hAGT (cloned and prepared as described in Example 1, but starting with the wild type hAGT gene, ˜48 kDa) are diluted to 0.2 μM and 1.2 μM final concentration, respectively, in reaction buffer containing 50 mM HEPES, 1 mM DTT, 200 mg/mL BSA (pH 7.3). The sample is incubated with a mixture of substrates N^9-cyclopentyl-O^6-bromophenyl-guanine (CPTG; 0, 5 and 10 μM final concentrations) and biotinylated O^6-benzylguanine (BG-Bt, 5 μM final concentration) for 30 minutes. The reaction is quenched by addition of SDS-Laemmli buffer and subjected to Western blotting analysis (Example 1). As the two AGT variants have different masses, the two proteins can be separated on an acrylamide gel and analyzed independently. […] At the same concentration (both substrates at 5 μM final concentration), 95% of GST-hAGT reacts with CPTG, versus only 5% of His-tagged AGTM.
molecule,measurement,setting,value
B1,kobs,[1]; BG-Cy3 activity assay,116 M⁻¹ s⁻¹
same,Relative reaction rate,"[1]; divided by value for wild type hAGT, purified GST fusion proteins (p.)",1
same,loss of soluble fluorescent protein,[2],about 60%
same,fraction of protein reacting with CPTG,"[3]; CPTG and BG-Bt both at 5 μM, 30 minutes",95%
same,fraction of protein reacting with BG-Bt,[3]; simultaneous incubation with identical concentrations of CPTG and BG-Bt,about 5%
